From publication PMC5183740

Molecular target: SA-M2e (streptavidin core fused to three consecutive copies of M2e of A/PARIS/2590/2009 (H1N1)) (Streptomyces avidinii | influenza A virus A/PARIS/2590/2009 (H1N1))
Assay: SDS-PAGE of unheated samples

SA-M2e (streptavidin core fused to three consecutive copies of M2e of A/PARIS/2590/2009 (H1N1))
stoichiometry N: 4
